IntAct's records for PubMed 30591568

B1: CD226 antigen (Mus musculus), Q8K4F0 (parent)
chain: MAYVTWLLAILHVHKALCEETLWDTTVRLSETMTLECVYPLTHNLTQVEWTKNTGTKTVSIAVYNPNHNMHIESNYLHRVHFLNSTVGFRNMSLSFYNASEADIGIYSCLFHAFPNGPWEKKIKVVWSDSFEIAAPSDSYLSAEPGQDVTLTCQLPRTWPVQQVIWEKVQPHQVDILASCNLSQETRYTSKYLRQTRSNCSQGSMKSILIIPNAMAADSGLYRCRSEAITGKNKSFVIRLIITDGGTNKHFILPIVGGLVSLLLVILIIIIFILYNRKRRRQVRIPLKEPRDKQSKVATNCRSPTSPIQSTDDEKEDIYVNYPTFSRRPKPRL
partner: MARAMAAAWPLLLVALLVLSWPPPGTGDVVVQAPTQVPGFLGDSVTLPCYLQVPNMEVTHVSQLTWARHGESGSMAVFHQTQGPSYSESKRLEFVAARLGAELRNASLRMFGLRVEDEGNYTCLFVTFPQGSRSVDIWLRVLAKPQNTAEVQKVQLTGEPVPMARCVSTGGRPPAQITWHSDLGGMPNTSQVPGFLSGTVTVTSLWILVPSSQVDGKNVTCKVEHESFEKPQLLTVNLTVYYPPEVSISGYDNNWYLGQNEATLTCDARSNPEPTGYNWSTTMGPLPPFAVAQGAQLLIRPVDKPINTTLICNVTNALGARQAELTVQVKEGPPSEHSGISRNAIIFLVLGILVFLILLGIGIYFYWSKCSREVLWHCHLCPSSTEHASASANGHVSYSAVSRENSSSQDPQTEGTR
B2: Poliovirus receptor (Homo sapiens), P15151 (parent)
chain: B1 partner
partner: B1 chain
B3: Poliovirus receptor (Homo sapiens), P15151 (parent)
chain: B1 partner
partner: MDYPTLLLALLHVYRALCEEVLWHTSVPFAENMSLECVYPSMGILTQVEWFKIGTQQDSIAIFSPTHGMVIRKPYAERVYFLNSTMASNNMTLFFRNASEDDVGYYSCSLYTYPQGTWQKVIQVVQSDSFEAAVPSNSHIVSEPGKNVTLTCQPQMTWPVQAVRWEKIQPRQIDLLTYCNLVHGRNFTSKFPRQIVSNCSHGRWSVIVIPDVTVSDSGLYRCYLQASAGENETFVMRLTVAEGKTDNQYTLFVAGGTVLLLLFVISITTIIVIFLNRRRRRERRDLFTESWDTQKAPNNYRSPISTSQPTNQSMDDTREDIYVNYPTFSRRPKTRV

Variants of: B1
Settings: with pvr_human PVR, P15151

| Variant | effect of a mutation on the interaction |
| --- | --- |
| H68A | decreasing interaction strength |
| Q47A | disrupting interaction strength |
| Q47R;E49R;H68S;F114R | disrupting interaction strength |
| F114A | disrupting interaction strength |

Variants of: B2
Settings: with cd226_mouse Cd226, Q8K4F0

| Variant | effect of a mutation on the interaction |
| --- | --- |
| Q63R;F128R | disrupting interaction strength |

Variants of: B3
Settings: with cd226_human CD226, Q15762

| Variant | effect of a mutation on the interaction |
| --- | --- |
| Q63R;F128R | disrupting interaction strength |
